Laboratory results from publication PMC5037986.

Target: recombinant mature human CD73 (soluble CD73, GPI anchor signal peptide replaced by a C-terminal 6x-histidine tag) (human)
Test: SEC-MALS

stoichiometry N: 2
Substance: recombinant mature human CD73 (soluble CD73, GPI anchor signal peptide replaced by a C-terminal 6x-histidine tag) (enzyme)
